This is an account of results in PMC2900200 (2008).

Experiment [1] addresses T1, Methuselah (Mth) ectodomain, C-terminal biotinylated (Drosophila melanogaster).
T1 sequence (O97148 whole entry, looked up): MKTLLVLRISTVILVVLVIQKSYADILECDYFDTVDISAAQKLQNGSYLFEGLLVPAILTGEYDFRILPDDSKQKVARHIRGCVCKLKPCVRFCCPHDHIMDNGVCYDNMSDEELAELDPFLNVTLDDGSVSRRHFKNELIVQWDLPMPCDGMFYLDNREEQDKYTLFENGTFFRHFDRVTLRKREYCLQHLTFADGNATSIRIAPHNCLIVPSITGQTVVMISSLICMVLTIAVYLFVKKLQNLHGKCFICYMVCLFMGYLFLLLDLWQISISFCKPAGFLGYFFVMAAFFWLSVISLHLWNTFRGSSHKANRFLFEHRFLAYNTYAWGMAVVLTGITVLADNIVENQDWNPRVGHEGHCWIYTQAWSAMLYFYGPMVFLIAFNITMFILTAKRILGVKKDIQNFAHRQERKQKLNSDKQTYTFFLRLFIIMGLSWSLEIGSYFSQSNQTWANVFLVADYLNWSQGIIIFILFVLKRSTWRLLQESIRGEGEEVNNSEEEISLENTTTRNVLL
The experiment in a line: SPR. On the technique in general: SPR reads the build-up and loss of mass on a sensor chip optically.

The target in a further experiment is T2, LP1 peptide.
T2 chain: FPSSWLQRYYLAKRR

The Kd is the constant that tells how readily two partners part at equilibrium. A high value points to a looser complex.

B1: LP1 W5F mutant peptide (peptide)
peptide: Ac-FPSSFLQRYYLAKRR-NH2
In experiment [1], B1 displayed a Kd of 12000 nM. This lies in the double-digit micromolar range.

B2: LP1 R15Q mutant peptide (peptide)
peptide: Ac-FPSSWLQRYYLAKRQ-NH2
On to B2, for which the Kd in experiment [1] was found to be 37.7 nM.

B3: LP1 L11Q mutant peptide (peptide)
peptide: Ac-FPSSWLQRYYQAKRR-NH2
In experiment [1], B3 gave a Kd of 24.5 nM.

B4: LP1 W5K mutant peptide (peptide)
peptide: Ac-FPSSKLQRYYLAKRR-NH2
Consider B4, for which the Kd in experiment [1] is > 15000 nM.

B5: Methuselah ectodomain (protein)
chain: DILECDYFDTVDISAAQKLQNGSYLFEGLLVPAILTGEYDFRILPDDSKQKVARHIRGCVCKLKPCVRFCCPHDHIMDNGVCYDNMSDEELAELDPFLNVTLDDGSVSRRHFKNELIVQWDLPMPCDGMFYLDNREEQDKYTLFENGTFFRHFDRVTLRKREYCLQHLTFADGNATSIRIAPHNCLIVPSITGQ
Turning to B5, binding in the experiment with LP1 peptide was put at a Kd of 18 nM. In other words, the double-digit nanomolar range.

B6: LP1 peptide (wild type) (peptide)
peptide: Ac-FPSSWLQRYYLAKRR-NH2
In turn, B6 had a Kd in experiment [1] of 18.5 nM.

B7: LP1 Y9F mutant peptide (peptide)
peptide: Ac-FPSSWLQRFYLAKRR-NH2
Consider B7, for which the Kd in experiment [1] came out at 49.5 nM.
